Results: article PMC7939455
Read-outs that look alike come from different tables or passages of the source. Blank lines part the entries; values can stand above or below the molecule they belong to.

Legend:
[1] = target: R838S mOrange-RetGC1 (human) (UniProt Q02846); assay: co-localisation of fluorescent fusions in living cells (confocal microscopy, PCC); mOrange-RetGC1 co-expressed with GCAP1-GFP or RD3-GFP in HEK293 cells (GFP plasmid to RetGC1 plasmid ~1/100 molar ratio); confocal images 24-30 h after transfection; PCC of whole-cell images; the GFP proteins are diffuse without RetGC1 and go to the membrane cyclase when they bind; PCC < 0.6 indicates lack of co-localization
[2] = target: mOrange-tagged R666W RetGC1 (human) (UniProt Q02846); assay: as above
[3] = target: mOrange-tagged WT human RetGC1 (human) (UniProt Q02846); assay: as above
[4] = target: Arg838(g- r+):Arg838(g+ r-) RetGC1 dimer (human) (UniProt Q02846)
[5] = target: Ser838(g- r+):Arg838(g+ r-) RetGC1 heterodimer (human) (UniProt Q02846)
[6] = target: Ser838(g- r+):Ser838(g+ r-) RetGC1 dimer (human) (UniProt Q02846)
WT human RetGC1 (human) [7] = target: WT human RetGC1 (human) (UniProt Q02846)
[8] = target: R838S mOrange-RetGC1 (human) (UniProt Q02846); assay: co-localisation of fluorescent fusions in living cells (confocal microscopy, PCC); mOrange-RetGC1 co-expressed with GCAP1-GFP or RD3-GFP in HEK293 cells (GFP plasmid to RetGC1 plasmid ~1/100 molar ratio); confocal images 24-30 h after transfection; PCC of whole-cell images; the GFP proteins are diffuse without RetGC1 and go to the membrane cyclase when they bind; PCC < 0.6 indicates lack of co-localization; remark: listed apart in the source
[9] = target: mOrange-tagged R666W RetGC1 (human) (UniProt Q02846); assay: as above; remark: listed apart in the source
[10] = target: mOrange-tagged WT human RetGC1 (human) (UniProt Q02846); assay: as above; remark: listed apart in the source
[11] = target: mOrange-tagged G982VfsX39 RetGC1 (human) (UniProt Q02846); assay: as above
[12] = target: mOrange-tagged R761W RetGC1 (human) (UniProt Q02846); assay: as above
[13] = target: mOrange-tagged L911F RetGC1 (human) (UniProt Q02846); assay: as above
WT human RetGC1 (human) [14] = target: WT human RetGC1 (human) (UniProt Q02846); remark: listed apart in the source
R666W RetGC1 (human) = R666W RetGC1 (human) (UniProt Q02846)

Molecule: RD3-GFP (from UniProt Q7Z3Z2 1-195) (natural protein)
- PCC (Pearson's correlation coefficient of co-localization) [1]: 0.91
- PCC (Pearson's correlation coefficient of co-localization) [2]: 0.9
- PCC (Pearson's correlation coefficient of co-localization) [3]: 0.91

Molecule: Recombinant human RD3 (from UniProt Q7Z3Z2 1-195) (natural protein)
- [RD3]1/2: RD3 concentration causing 50% inhibition of RetGC1 activity preactivated by 1.5 μM GCAP1 in 10 mM Mg2+ and 2 mM EGTA; pair acted on: GCAP1 with the cyclase dimer [4]: 2.3 nM
- [RD3]1/2: RD3 concentration causing 50% inhibition of RetGC1 activity preactivated by 1.5 μM GCAP1 in 10 mM Mg2+ and 2 mM EGTA; pair acted on: GCAP1 with the cyclase dimer [5]: 42 nM
- [RD3]1/2: RD3 concentration causing 50% inhibition of RetGC1 activity preactivated by 1.5 μM GCAP1 in 10 mM Mg2+ and 2 mM EGTA; pair acted on: GCAP1 with the cyclase dimer [6]: 23 nM

B2: GCAP1-GFP (natural protein)
chain: MGNIMDGKSVEELSSTECHQWYKKFMTECPSGQLTLYEFRQFFGLKNLSPWASQYVEQMFETFDFNKDGYIDFMEYVAALSLVLKGKVEQKLRWYFKLYDVDGNGCIDRDELLTIIRAIRAINPCSDSTMTAEEFTDTVFSKIDVNGDGELSLEEFMEGVQKDQMLLDTLTRSLDLTRIVRRLQNGEQDEEGASGRETEAAEADG
- PCC (Pearson's correlation coefficient of co-localization) [8]: 0.89
- PCC (Pearson's correlation coefficient of co-localization) [9]: 0.64
- PCC (Pearson's correlation coefficient of co-localization) [10]: 0.9
- PCC (Pearson's correlation coefficient of co-localization) [11]: 0.87
- PCC (Pearson's correlation coefficient of co-localization) [12]: 0.64
- PCC (Pearson's correlation coefficient of co-localization) [13]: 0.89

Next, values leading:

- [GCAP]1/2: half-saturating concentration of Mg2+ GCAP3 for activation of guanylyl cyclase activity in HEK293 membranes (10 mM Mg2+, 2 mM EGTA) (WT human RetGC1 (human) [7]): 5.3 µM
B1: Human GCAP3, N-myristoylated (natural protein)
chain: MGNGKSIAGDQKAVPTQETHVWYRTFMMEYPSGLQTLHEFKTLLGLQGLNQKANKHIDQVYNTFDTNKDGFVDFLEFIAAVNLIMQEKMEQKLKWYFKLYDADGNGSIDKNELLDMFMAVQALNGQQTLSPEEFINLVFHKIDINNDGELTLEEFINGMAKDQDLLEIVYKSFDFSNVLRVICNGKQPDMETDSSKSPDKAGLGKVKMK
modifications: N-myristoylated

- [GCAP]1/2: half-saturating concentration of Mg2+ GCAP2 for activation of guanylyl cyclase activity in HEK293 membranes (10 mM Mg2+, 2 mM EGTA) (WT human RetGC1 (human) [7]): 19 µM
B3: Human GCAP2, N-myristoylated (natural protein)
chain: MGQEFSWEEAEAAGEIDVAELQEWYKKFVMECPSGTLFMHEFKRFFKVTDDEEASQYVEGMFRAFDKNGDNTIDFLEYVAALNLVLRGTLEHKLKWTFKIYDKDGNGCIDRLELLNIVEGIYQLKKACRRELQTEQGQLLTPEEVVDRIFLLVDENGDGQLSLNEFVEGARRDKWVMKMLQMDMNPSSWLAQQRRKSAMF
modifications: N-myristoylated

- [GCAP]1/2: half-saturating concentration of GCAP1 for RetGC1 activation in 10 mM Mg2+ and 2 mM EGTA (Fig. 10C) (WT human RetGC1 (human) [14]): 1.1 µM
- [GCAP]1/2: half-saturating concentration of GCAP1 for RetGC1 activation in 10 mM Mg2+ and 2 mM EGTA (Fig. 10C) [4]: 1.65 µM
- [GCAP]1/2: half-saturating concentration of GCAP1 for RetGC1 activation in 10 mM Mg2+ and 2 mM EGTA (Fig. 10C) [5]: 0.22 µM
- [GCAP]1/2: half-saturating concentration of GCAP1 for RetGC1 activation in 10 mM Mg2+ and 2 mM EGTA (Fig. 10C) [6]: 0.4 µM
- [GCAP1]1/2: half-saturating concentration of Mg2+ GCAP1 for activation of guanylyl cyclase activity in HEK293 membranes (10 mM Mg2+, 2 mM EGTA) (R666W RetGC1 (human)): 7.25 µM
- [GCAP]1/2: half-saturating concentration of Mg2+ GCAP1 for activation of guanylyl cyclase activity in HEK293 membranes (10 mM Mg2+, 2 mM EGTA) (WT human RetGC1 (human) [7]): 1.13 µM
B4: Human GCAP1 (E6S), N-myristoylated (natural protein)
chain: MGNVMSGKSVEELSSTECHQWYKKFMTECPSGQLTLYEFRQFFGLKNLSPSASQYVEQMFETFDFNKDGYIDFMEYVAALSLVLKGKVEQKLRWYFKLYDVDGNGCIDRDELLTIIQAIRAINPCSDTTMTAEEFTDTVFSKIDVNGDGELSLEEFIEGVQKDQMLLDTLTRSLDLTRIVRRLQNGEQDEEGADEAAEAAG
modifications: N-myristoylated
